Target: the molecule itself
Test: SEC

B1: human amphiphysin 1 N-BAR domain (1-247) (domain or fragment, UniProt P49418 1-247, looked up)
chain: MADIKTGIFAKNVQKRLNRAQEKVLQKLGKADETKDEQFEEYVQNFKRQEAEGTRLQRELRGYLAAIKGMQEASMKLTESLHEVYEPDWYGREDVKMVGEKCDVLWEDFHQKLVDGSLLTLDTYLGQFPDIKNRIAKRSRKLVDYDSARHHLEALQSSKRKDESRISKAEEEFQKAQKVFEEFNVDLQEELPSLWSRRVGFYVNTFKNVSSLEAKFHKEIAVLCHKLYEVMTKLGDQHADKAFTIQG
stoichiometry N: 2

Reference: publication PMC10308189 (Bio-protocol, 2023)
